# Results published in EP1899377B1.
# Biological target: GST-human NOGO-A56 (human) (UniProt Q9NQC3)
# Test: SPR (Biacore T100), reverse format: antibody captured on Protein A, human NOGO 5+6 GST as analyte, 1:1 model; mean (SD) of 5 or 6 runs
# Chain of GST-human NOGO-A56 (human) (Q9NQC3 586-785, form in doubt): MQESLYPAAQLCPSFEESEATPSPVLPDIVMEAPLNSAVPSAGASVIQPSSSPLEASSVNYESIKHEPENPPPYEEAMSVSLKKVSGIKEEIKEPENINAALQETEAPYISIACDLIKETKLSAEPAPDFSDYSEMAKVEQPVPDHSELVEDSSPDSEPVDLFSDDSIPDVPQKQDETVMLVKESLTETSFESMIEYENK
substance,measurement,value
11C7 (chimeric version) (antibody),Kd,420 pM
same,koff,0.000117 s⁻¹
same,kon,285000 M⁻¹ s⁻¹
